Earlier results in publication PMC3350600.

Target: PP1 (Homo sapiens) (UniProt P62136)
Sequence of UniProt P62136 (P62136 2-330): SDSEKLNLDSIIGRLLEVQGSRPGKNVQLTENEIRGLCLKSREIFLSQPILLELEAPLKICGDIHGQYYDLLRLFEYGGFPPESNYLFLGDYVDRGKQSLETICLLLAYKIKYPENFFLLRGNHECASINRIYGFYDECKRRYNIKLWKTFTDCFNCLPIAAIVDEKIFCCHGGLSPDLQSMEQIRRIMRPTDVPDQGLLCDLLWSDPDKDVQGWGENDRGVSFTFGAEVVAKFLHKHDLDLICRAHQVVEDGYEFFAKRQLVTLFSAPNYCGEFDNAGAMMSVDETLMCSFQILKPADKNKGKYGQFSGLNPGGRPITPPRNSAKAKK

Substance: Spinophilin PP1-binding domain (from UniProt O35274)
- Kd: 8 nM
